Data set [1] has as its target odd-2 (C34H3.2) (Caenorhabditis elegans) (UniProt Q9N5X6).
The target of data set [2] is lin-48 (F34D10.5) (Caenorhabditis elegans) (UniProt G5EDU6).
In data set [3] the target is T1, che-1 (C55B7.12) (Caenorhabditis elegans) (UniProt Q966L8).
T1 sequence: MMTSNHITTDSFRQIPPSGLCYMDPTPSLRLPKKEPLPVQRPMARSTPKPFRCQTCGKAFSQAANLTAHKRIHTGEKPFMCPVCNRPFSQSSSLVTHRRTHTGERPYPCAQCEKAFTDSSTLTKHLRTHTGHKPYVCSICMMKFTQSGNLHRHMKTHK

Data set [4] addresses T2, F13H6.1 (F13H6.1) (Caenorhabditis elegans) (UniProt H2KZR6).
T2 sequence: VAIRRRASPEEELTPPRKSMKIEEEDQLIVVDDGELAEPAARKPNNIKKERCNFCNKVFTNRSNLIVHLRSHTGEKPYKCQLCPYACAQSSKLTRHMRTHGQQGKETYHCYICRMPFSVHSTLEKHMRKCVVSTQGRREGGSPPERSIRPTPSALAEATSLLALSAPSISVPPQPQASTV

In data set [5] the target is T3, nhr-204 (R02C2.4) (Caenorhabditis elegans) (UniProt O44543).
T3 sequence: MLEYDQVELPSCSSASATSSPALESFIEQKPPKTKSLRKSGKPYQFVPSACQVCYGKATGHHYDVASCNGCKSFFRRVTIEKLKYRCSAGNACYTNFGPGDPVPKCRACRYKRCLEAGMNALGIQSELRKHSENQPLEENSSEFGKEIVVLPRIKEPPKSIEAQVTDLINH

The target of data set [6] is T4, F10B5.3 (F10B5.3) (Caenorhabditis elegans) (UniProt Q09534).
T4 sequence: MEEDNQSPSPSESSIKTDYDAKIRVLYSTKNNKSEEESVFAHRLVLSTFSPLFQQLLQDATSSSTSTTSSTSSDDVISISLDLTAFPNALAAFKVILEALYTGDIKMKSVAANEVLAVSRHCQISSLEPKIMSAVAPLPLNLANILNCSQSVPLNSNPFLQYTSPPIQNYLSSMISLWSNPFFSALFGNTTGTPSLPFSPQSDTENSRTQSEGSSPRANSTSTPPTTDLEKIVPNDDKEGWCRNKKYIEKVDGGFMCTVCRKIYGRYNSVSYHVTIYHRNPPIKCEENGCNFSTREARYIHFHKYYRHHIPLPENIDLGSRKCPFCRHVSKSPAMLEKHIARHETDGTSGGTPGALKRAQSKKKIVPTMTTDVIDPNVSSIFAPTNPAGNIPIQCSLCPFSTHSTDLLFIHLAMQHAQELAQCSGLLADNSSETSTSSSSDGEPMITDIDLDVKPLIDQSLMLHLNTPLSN

The target of data set [7] is T5, ZK337.2 (ZK337.2) (Caenorhabditis elegans) (UniProt O46016).
T5 sequence: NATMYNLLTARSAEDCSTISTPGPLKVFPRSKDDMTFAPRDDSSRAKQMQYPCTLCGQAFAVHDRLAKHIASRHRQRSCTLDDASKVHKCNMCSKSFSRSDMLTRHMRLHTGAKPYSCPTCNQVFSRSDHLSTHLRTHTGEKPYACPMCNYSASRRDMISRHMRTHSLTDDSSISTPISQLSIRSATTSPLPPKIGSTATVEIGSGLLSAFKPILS

In data set [8] the target is ZC328.2 (ZC328.2) (Caenorhabditis elegans) (UniProt O02050).
Data set [9] addresses egrh-1 (C27C12.2) (Caenorhabditis elegans) (UniProt Q18250).

Chain of odd-2 (C34H3.2) (Caenorhabditis elegans) (Q9N5X6 74-252): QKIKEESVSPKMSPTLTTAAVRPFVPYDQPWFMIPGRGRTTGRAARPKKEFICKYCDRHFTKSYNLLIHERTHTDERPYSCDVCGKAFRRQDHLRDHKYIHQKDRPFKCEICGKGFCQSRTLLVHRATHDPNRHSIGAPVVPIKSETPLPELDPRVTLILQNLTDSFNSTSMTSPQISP
Chain of lin-48 (F34D10.5) (Caenorhabditis elegans) (G5EDU6 83-280): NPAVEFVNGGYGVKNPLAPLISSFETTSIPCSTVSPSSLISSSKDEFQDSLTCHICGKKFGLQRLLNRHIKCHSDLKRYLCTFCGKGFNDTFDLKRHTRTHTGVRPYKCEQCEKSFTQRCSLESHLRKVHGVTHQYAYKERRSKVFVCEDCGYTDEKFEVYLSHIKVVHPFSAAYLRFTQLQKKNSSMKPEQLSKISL
Chain of ZC328.2 (ZC328.2) (Caenorhabditis elegans) (O02050 entry or part of it): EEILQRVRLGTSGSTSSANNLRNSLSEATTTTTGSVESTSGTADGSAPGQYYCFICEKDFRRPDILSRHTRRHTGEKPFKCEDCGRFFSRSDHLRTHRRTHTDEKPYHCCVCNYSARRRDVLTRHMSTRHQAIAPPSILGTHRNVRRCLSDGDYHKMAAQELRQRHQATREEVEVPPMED
Chain of egrh-1 (C27C12.2) (Caenorhabditis elegans) (Q18250 324-461): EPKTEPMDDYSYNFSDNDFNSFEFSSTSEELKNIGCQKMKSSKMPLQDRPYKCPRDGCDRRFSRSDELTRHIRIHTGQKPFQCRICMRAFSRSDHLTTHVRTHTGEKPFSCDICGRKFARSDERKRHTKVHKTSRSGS

Take “AACAGTAG (double strand) [8-mer AACAGTAG]”: the binding signal (PBM E-score (-0.5 to 0.5)) in data set [1] is 0.492. In the case of “AACCGTTA (double strand) [8-mer AACCGTTA]”, the binding signal (PBM E-score (-0.5 to 0.5)) in data set [2] is 0.49. In turn, “AAGAAGCC (double strand) [8-mer AAGAAGCC]” gave a binding signal (PBM E-score (-0.5 to 0.5)) in data set [3] of 0.493. In the case of “AAGGCTTC (double strand) [8-mer AAGGCTTC]”, the binding signal (PBM E-score (-0.5 to 0.5)) in data set [3] was determined as 0.494.

Regarding “AAGTGACC (double strand) [8-mer AAGTGACC]”, the binding signal (PBM E-score (-0.5 to 0.5)) in data set [4] was 0.494. For “AATGACCA (double strand) [8-mer AATGACCA]”, in [4], the binding signal (PBM E-score (-0.5 to 0.5)) came to 0.496. On the same count and under the same terms, under “AATGGTCA (double strand) [8-mer AATGGTCA]” stands 0.495. In [1], “ACAGTAGC (double strand) [8-mer ACAGTAGC]” gave a binding signal (PBM E-score (-0.5 to 0.5)) of 0.499. For the sequence “ACCGTTAC (double strand) [8-mer ACCGTTAC]”, the binding signal (PBM E-score (-0.5 to 0.5)) in data set [2] was found to be 0.497. Same read-out and setting: the result for “ACCGTTAG (double strand) [8-mer ACCGTTAG]” reads 0.489. The same measure, in the same setting: the result for “ACCGTTAT (double strand) [8-mer ACCGTTAT]” reads 0.493.

“ACGGAAGC (double strand) [8-mer ACGGAAGC]” showed a binding signal (PBM E-score (-0.5 to 0.5)) in data set [1] of 0.485.

In turn, “ACGGTAGC (double strand) [8-mer ACGGTAGC]” showed a binding signal (PBM E-score (-0.5 to 0.5)) in [1] of 0.498.

Consider “ACTGACCA (double strand) [8-mer ACTGACCA]”, for which, in data set [4], the binding signal (PBM E-score (-0.5 to 0.5)) worked out at 0.497.

In turn, “ACTGGTCA (double strand) [8-mer ACTGGTCA]” yielded a binding signal (PBM E-score (-0.5 to 0.5)) in data set [4] of 0.495. Sequence “AGAAGCCA (double strand) [8-mer AGAAGCCA]” had a binding signal (PBM E-score (-0.5 to 0.5)) in [3] of 0.489. The same measure, in the same setting: under “AGAAGCCC (double strand) [8-mer AGAAGCCC]” stands 0.491.

In the case of “AGCTACCG (double strand) [8-mer AGCTACCG]”, the binding signal (PBM E-score (-0.5 to 0.5)) in data set [1] is 0.492. In [1], “AGCTACTG (double strand) [8-mer AGCTACTG]” yielded a binding signal (PBM E-score (-0.5 to 0.5)) of 0.492. Regarding “AGGAAGCC (double strand) [8-mer AGGAAGCC]”, in [3], the binding signal (PBM E-score (-0.5 to 0.5)) stood at 0.49. Same read-out and setting: the result for “AGGCTTCC (double strand) [8-mer AGGCTTCC]” reads 0.491; that for “AGGGCTTC (double strand) [8-mer AGGGCTTC]”, 0.497. “AGTAACGG (double strand) [8-mer AGTAACGG]” registered a binding signal (PBM E-score (-0.5 to 0.5)) in [2] of 0.487. Regarding “AGTGACCA (double strand) [8-mer AGTGACCA]”, the binding signal (PBM E-score (-0.5 to 0.5)) in data set [4] worked out at 0.498. Same read-out and setting: under “AGTGGTCA (double strand) [8-mer AGTGGTCA]” stands 0.497. In turn, “ATAACGGA (double strand) [8-mer ATAACGGA]” yielded a binding signal (PBM E-score (-0.5 to 0.5)) in [2] of 0.485. Still for that read-out and setting: under “ATAACGGG (double strand) [8-mer ATAACGGG]” stands 0.494.

The sequence “ATGAAGCC (double strand) [8-mer ATGAAGCC]” came in with a binding signal (PBM E-score (-0.5 to 0.5)) in [3] of 0.489. Still for that read-out and setting: under “ATGGCTTC (double strand) [8-mer ATGGCTTC]” stands 0.495. With “ATTGGTCA (double strand) [8-mer ATTGGTCA]”, the values for the binding signal (PBM E-score (-0.5 to 0.5)) in data set [5] and in [4] were 0.477 and 0.495, respectively.

“ATTTCCAG (double strand) [8-mer ATTTCCAG]” gave a binding signal (PBM E-score (-0.5 to 0.5)) in [6] of 0.473. “CAGTAGCA (double strand) [8-mer CAGTAGCA]”: the binding signal (PBM E-score (-0.5 to 0.5)) in data set [1] came to 0.495. On the same count and under the same terms, under “CAGTAGCC (double strand) [8-mer CAGTAGCC]” stands 0.492; under “CAGTAGCG (double strand) [8-mer CAGTAGCG]”, 0.488; under “CCAGTAGC (double strand) [8-mer CCAGTAGC]”, 0.492. Same read-out and setting: under “CCGGTAGC (double strand) [8-mer CCGGTAGC]” stands 0.496. “CCGTTACA (double strand) [8-mer CCGTTACA]” came in with a binding signal (PBM E-score (-0.5 to 0.5)) in data set [2] of 0.486. Same read-out and setting: under “CCGTTATA (double strand) [8-mer CCGTTATA]” stands 0.494. In data set [6], “CCTCGAAA (double strand) [8-mer CCTCGAAA]” showed a binding signal (PBM E-score (-0.5 to 0.5)) of 0.474. Same read-out and setting: under “CCTGGAAA (double strand) [8-mer CCTGGAAA]” stands 0.48. For the sequence “CGCCCCCG (double strand) [8-mer CGCCCCCG]”, the values for the binding signal (PBM E-score (-0.5 to 0.5)) in [7], in data set [8] and in data set [9] were 0.49, 0.489 and 0.496, respectively. For “CGCTACCG (double strand) [8-mer CGCTACCG]”, in data set [1], the binding signal (PBM E-score (-0.5 to 0.5)) was determined as 0.488. As to “CGGTAGCA (double strand) [8-mer CGGTAGCA]”, the binding signal (PBM E-score (-0.5 to 0.5)) in data set [1] turned out to be 0.496. With “CGGTAGCC (double strand) [8-mer CGGTAGCC]”, the binding signal (PBM E-score (-0.5 to 0.5)) in [1] stood at 0.485. “CTGACCAC (double strand) [8-mer CTGACCAC]”: the binding signal (PBM E-score (-0.5 to 0.5)) in [4] is 0.495. In turn, “CTGGAAAA (double strand) [8-mer CTGGAAAA]” had a binding signal (PBM E-score (-0.5 to 0.5)) in data set [6] of 0.475. Consider “CTTGACCA (double strand) [8-mer CTTGACCA]”, for which, in data set [4], the binding signal (PBM E-score (-0.5 to 0.5)) was determined as 0.496. “GAAGCCCC (double strand) [8-mer GAAGCCCC]” showed a binding signal (PBM E-score (-0.5 to 0.5)) in data set [3] of 0.492. “GAGTGACC (double strand) [8-mer GAGTGACC]”: in data set [4], the binding signal (PBM E-score (-0.5 to 0.5)) amounted to 0.496. Same read-out and setting: the result for “GATGACCA (double strand) [8-mer GATGACCA]” reads 0.494. For “GCTACTGA (double strand) [8-mer GCTACTGA]”, the binding signal (PBM E-score (-0.5 to 0.5)) in data set [1] was found to be 0.486.

In [3], “GGAAGCCA (double strand) [8-mer GGAAGCCA]” displayed a binding signal (PBM E-score (-0.5 to 0.5)) of 0.494. With “GGAAGCCC (double strand) [8-mer GGAAGCCC]”, the binding signal (PBM E-score (-0.5 to 0.5)) in data set [3] came out at 0.495. The same measure, in the same setting: under “GGCTTCCC (double strand) [8-mer GGCTTCCC]” stands 0.497; under “GGGCTTCA (double strand) [8-mer GGGCTTCA]”, 0.493. In data set [4], “GGTGGTCA (double strand) [8-mer GGTGGTCA]” had a binding signal (PBM E-score (-0.5 to 0.5)) of 0.494. On the same count and under the same terms, the result for “GTGGTCAA (double strand) [8-mer GTGGTCAA]” reads 0.496. In turn, “GTTCCAGA (double strand) [8-mer GTTCCAGA]” came in with a binding signal (PBM E-score (-0.5 to 0.5)) in data set [6] of 0.473. As for “GTTGACCA (double strand) [8-mer GTTGACCA]”, the binding signal (PBM E-score (-0.5 to 0.5)) in data set [4] is 0.494.

In the case of “TACACGAA (double strand) [8-mer TACACGAA]”, the binding signal (PBM E-score (-0.5 to 0.5)) in data set [6] is 0.476. Same read-out and setting: under “TCCACGAA (double strand) [8-mer TCCACGAA]” stands 0.476; under “TCCTCGAA (double strand) [8-mer TCCTCGAA]”, 0.481. Same read-out and setting: under “TCCTGGAA (double strand) [8-mer TCCTGGAA]” stands 0.491; under “TCGTGGAA (double strand) [8-mer TCGTGGAA]”, 0.483; under “TCTGGAAA (double strand) [8-mer TCTGGAAA]”, 0.487.

Regarding “TTCCGGAA (double strand) [8-mer TTCCGGAA]”, the binding signal (PBM E-score (-0.5 to 0.5)) in data set [6] worked out at 0.49. With “TTCGAGAA (double strand) [8-mer TTCGAGAA]”, in data set [6], the binding signal (PBM E-score (-0.5 to 0.5)) was 0.477.

The record behind these values is article PMC4434323.
